Measured values published in the supplement of paper PMC7125110.
± gives the standard error. Fewer inactive variants are shown than the library holds.

B1: glmS ribozyme (parent)
chain: AUAAAAGCGCCAGAACUACAGAAAUGUAGUUGACGAGGAGGAGGUUUAUCGAAUUUUCGGCGGAUGCCUCCAAA

Assays:
Settings in all cases: with glucosamine-6-phosphate
glucosamine-6-phosphate [1] = variants of: B1; test: self-cleavage kobs at 40 uM GlcN6P; higher = faster cleavage; RNA array
Outline: (§1)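 The measurements used barcoded ribozyme variants on sequenced MiSeq chips, transcribed in situ by E. coli RNA polymerase and tracked at 37 °C with a hybridised Cy3 probe. Glucosamine-6-phosphate, 40 μM to 10 mM in HEPES/KCl/Mg(OAc)2 buffer, was flowed in while tiles were imaged over ~14 h. Baseline-normalised signals, also normalised to non-cleaving reference variants, gave per-tile medians that were fit to one- or two-exponential decays for kobs. kcat and KM resulted from weighted Michaelis–Menten fits across concentrations.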

glucosamine-6-phosphate [2] = variants of: B1; test: self-cleavage kobs at 640 uM GlcN6P; higher = faster cleavage; RNA array
Outline: as §1

glucosamine-6-phosphate [3] = variants of: B1; test: self-cleavage kobs at 2500 uM GlcN6P; higher = faster cleavage; RNA array
Outline: as §1

glucosamine-6-phosphate [4] = variants of: B1; test: self-cleavage kobs at 160 uM GlcN6P; higher = faster cleavage; RNA array
Outline: as §1

glucosamine-6-phosphate [5] = variants of: B1; test: self-cleavage kobs at 10000 uM GlcN6P; higher = faster cleavage; RNA array
Outline: as §1

Variant	self-cleavage kobs at 40 uM GlcN6P (glucosamine-6-phosphate [1])	self-cleavage kobs at 640 uM GlcN6P (glucosamine-6-phosphate [2])	self-cleavage kobs at 2500 uM GlcN6P (glucosamine-6-phosphate [3])	self-cleavage kobs at 160 uM GlcN6P (glucosamine-6-phosphate [4])	self-cleavage kobs at 10000 uM GlcN6P (glucosamine-6-phosphate [5])
C8A A48U	< 1e-05 s⁻¹	< 1e-05 s⁻¹	< 1e-05 s⁻¹		
C8G U55A C61A	< 1e-05 s⁻¹				
C8U G38C G44U A48C	< 1e-05 s⁻¹				
G7U G35C U57A	< 1e-05 s⁻¹		< 1e-05 s⁻¹		
C8G U45A	< 1e-05 s⁻¹	< 1e-05 s⁻¹		< 1e-05 s⁻¹	< 1e-05 s⁻¹
C8A G26U A33C	< 1e-05 s⁻¹				
G9A C10G	< 1e-05 s⁻¹		< 1e-05 s⁻¹	< 1e-05 s⁻¹	
C8U G29A G40U U45A	< 1e-05 s⁻¹				< 1e-05 s⁻¹
C8A G29C	< 1e-05 s⁻¹	< 1e-05 s⁻¹	< 1e-05 s⁻¹	< 1e-05 s⁻¹	< 1e-05 s⁻¹
C8U G41C	< 1e-05 s⁻¹	< 1e-05 s⁻¹			< 1e-05 s⁻¹
G9A G29C G32C U45C A53C	< 1e-05 s⁻¹				
G7U G38U C71A	< 1e-05 s⁻¹				< 1e-05 s⁻¹
C8A C34U G35U G43A U45G U54C	< 1e-05 s⁻¹				< 1e-05 s⁻¹
C8G A48C	< 1e-05 s⁻¹		< 1e-05 s⁻¹	< 1e-05 s⁻¹	
C8A U30A	< 1e-05 s⁻¹		< 1e-05 s⁻¹	< 1e-05 s⁻¹	< 1e-05 s⁻¹
C8A C71A	< 1e-05 s⁻¹	< 1e-05 s⁻¹	< 1e-05 s⁻¹	< 1e-05 s⁻¹	< 1e-05 s⁻¹
G7U G32C	< 1e-05 s⁻¹	< 1e-05 s⁻¹	< 1e-05 s⁻¹		< 1e-05 s⁻¹
G7U G32A	< 1e-05 s⁻¹	< 1e-05 s⁻¹	< 1e-05 s⁻¹	< 1e-05 s⁻¹	< 1e-05 s⁻¹
G7U U46G	< 1e-05 s⁻¹	< 1e-05 s⁻¹	< 1e-05 s⁻¹	< 1e-05 s⁻¹	< 1e-05 s⁻¹
C8U G13U A39C	< 1e-05 s⁻¹				
C8A U49G	< 1e-05 s⁻¹	< 1e-05 s⁻¹	< 1e-05 s⁻¹	< 1e-05 s⁻¹	< 1e-05 s⁻¹
G7U A48G A64U	< 1e-05 s⁻¹				< 1e-05 s⁻¹
G7U C11U A33U G40C	< 1e-05 s⁻¹		< 1e-05 s⁻¹		< 1e-05 s⁻¹

Variant	self-cleavage kobs at 40 uM GlcN6P (glucosamine-6-phosphate [1])	self-cleavage kobs at 640 uM GlcN6P (glucosamine-6-phosphate [2])	self-cleavage kobs at 2500 uM GlcN6P (glucosamine-6-phosphate [3])	self-cleavage kobs at 160 uM GlcN6P (glucosamine-6-phosphate [4])	self-cleavage kobs at 10000 uM GlcN6P (glucosamine-6-phosphate [5])
G7U G40A	< 1e-05 s⁻¹				
C8U U31G	< 1e-05 s⁻¹	< 1e-05 s⁻¹	< 1e-05 s⁻¹	< 1e-05 s⁻¹	< 1e-05 s⁻¹
G7C U30G	< 1e-05 s⁻¹	< 1e-05 s⁻¹	< 1e-05 s⁻¹	< 1e-05 s⁻¹	< 1e-05 s⁻¹
C8G A14C	< 1e-05 s⁻¹	< 1e-05 s⁻¹	< 1e-05 s⁻¹	< 1e-05 s⁻¹	< 1e-05 s⁻¹
C8U G40C	< 1e-05 s⁻¹	< 1e-05 s⁻¹			< 1e-05 s⁻¹
C8U U57C	< 1e-05 s⁻¹	< 1e-05 s⁻¹	< 1e-05 s⁻¹	< 1e-05 s⁻¹	< 1e-05 s⁻¹
C8A C16G	< 1e-05 s⁻¹	< 1e-05 s⁻¹	< 1e-05 s⁻¹	< 1e-05 s⁻¹	< 1e-05 s⁻¹
C8G U31C A33U U46C C67A	< 1e-05 s⁻¹				< 1e-05 s⁻¹
C8G A39U C58U	< 1e-05 s⁻¹	< 1e-05 s⁻¹		< 1e-05 s⁻¹	< 1e-05 s⁻¹
C8G U31G	< 1e-05 s⁻¹	< 1e-05 s⁻¹	< 1e-05 s⁻¹	< 1e-05 s⁻¹	
G9A C11U	< 1e-05 s⁻¹	< 1e-05 s⁻¹	< 1e-05 s⁻¹	< 1e-05 s⁻¹	< 1e-05 s⁻¹
C8A G43C C67U	< 1e-05 s⁻¹	< 1e-05 s⁻¹	< 1e-05 s⁻¹		
C8U U45C	< 1e-05 s⁻¹	< 1e-05 s⁻¹	< 1e-05 s⁻¹	< 1e-05 s⁻¹	
C8U G38U	< 1e-05 s⁻¹		< 1e-05 s⁻¹	< 1e-05 s⁻¹	
G9A C16U A42G C50G	0.000108 ± 4.9e-05 s⁻¹				
C8G A39C U55G G59U	< 1e-05 s⁻¹				< 1e-05 s⁻¹
G7U A53U U57A	< 1e-05 s⁻¹				
G7U A12C C50G C61A	0.000187 ± 7.2e-05 s⁻¹				0.000332 ± 0.00012 s⁻¹
G9A C50G C70G	9.06e-05 ± 2.7e-05 s⁻¹				4.63e-05 ± 1.4e-05 s⁻¹
G9A A39U G44A U55C	< 1e-05 s⁻¹				< 1e-05 s⁻¹
C8A A15U G38A G41C A53G	< 1e-05 s⁻¹				
G7C G60U	< 1e-05 s⁻¹		< 1e-05 s⁻¹	< 1e-05 s⁻¹	< 1e-05 s⁻¹
C8U U69G	0.000157 ± 3.4e-05 s⁻¹	0.00216 ± 0.00095 s⁻¹			0.000167 ± 3.1e-05 s⁻¹

Variant	self-cleavage kobs at 40 uM GlcN6P (glucosamine-6-phosphate [1])	self-cleavage kobs at 640 uM GlcN6P (glucosamine-6-phosphate [2])	self-cleavage kobs at 2500 uM GlcN6P (glucosamine-6-phosphate [3])	self-cleavage kobs at 160 uM GlcN6P (glucosamine-6-phosphate [4])	self-cleavage kobs at 10000 uM GlcN6P (glucosamine-6-phosphate [5])
C8G U31C A36U U57A	< 1e-05 s⁻¹		< 1e-05 s⁻¹		
G7U A36U U54A G62A	< 1e-05 s⁻¹				
C8A G62A	< 1e-05 s⁻¹	< 1e-05 s⁻¹		< 1e-05 s⁻¹	< 1e-05 s⁻¹
G7U G43A	< 1e-05 s⁻¹	< 1e-05 s⁻¹	< 1e-05 s⁻¹	< 1e-05 s⁻¹	< 1e-05 s⁻¹
G7U G43C	< 1e-05 s⁻¹	< 1e-05 s⁻¹		< 1e-05 s⁻¹	
C8A C50A	< 1e-05 s⁻¹	< 1e-05 s⁻¹	< 1e-05 s⁻¹	< 1e-05 s⁻¹	< 1e-05 s⁻¹
C8U A14G C16U	< 1e-05 s⁻¹				< 1e-05 s⁻¹
G9A G13U A15G G37C A39C A53U C67G C68A	0.000469 ± 0.00015 s⁻¹	0.000121 ± 4.4e-05 s⁻¹			0.000282 ± 7.8e-05 s⁻¹
G9A C11G G35U G37U C61U	< 1e-05 s⁻¹		< 1e-05 s⁻¹		
G7U U57G C61A C68U C70U	5.84e-05 ± 2.5e-05 s⁻¹				
C8G U30G	< 1e-05 s⁻¹	< 1e-05 s⁻¹		< 1e-05 s⁻¹	< 1e-05 s⁻¹
C8A C34G A52U C67U	< 1e-05 s⁻¹				< 1e-05 s⁻¹
G7C U45G	< 1e-05 s⁻¹	< 1e-05 s⁻¹	< 1e-05 s⁻¹	< 1e-05 s⁻¹	< 1e-05 s⁻¹
G7U A12C	< 1e-05 s⁻¹	< 1e-05 s⁻¹	< 1e-05 s⁻¹	< 1e-05 s⁻¹	< 1e-05 s⁻¹
G9A A39G	< 1e-05 s⁻¹			< 1e-05 s⁻¹	
G9A G43C	< 1e-05 s⁻¹				
G7U C11U	< 1e-05 s⁻¹	< 1e-05 s⁻¹	< 1e-05 s⁻¹	< 1e-05 s⁻¹	< 1e-05 s⁻¹
G7U G43U C50U G51C	< 1e-05 s⁻¹				< 1e-05 s⁻¹
C8G C68U	< 1e-05 s⁻¹				
C8G C68G	< 1e-05 s⁻¹			< 1e-05 s⁻¹	< 1e-05 s⁻¹
G7U A52C C70U	< 1e-05 s⁻¹	< 1e-05 s⁻¹	< 1e-05 s⁻¹		< 1e-05 s⁻¹
G9A G13A G63C	< 1e-05 s⁻¹				< 1e-05 s⁻¹
C8U G59C	< 1e-05 s⁻¹	< 1e-05 s⁻¹	< 1e-05 s⁻¹		< 1e-05 s⁻¹

Variant	self-cleavage kobs at 40 uM GlcN6P (glucosamine-6-phosphate [1])	self-cleavage kobs at 640 uM GlcN6P (glucosamine-6-phosphate [2])	self-cleavage kobs at 2500 uM GlcN6P (glucosamine-6-phosphate [3])	self-cleavage kobs at 160 uM GlcN6P (glucosamine-6-phosphate [4])	self-cleavage kobs at 10000 uM GlcN6P (glucosamine-6-phosphate [5])
C8G G29U C71G	< 1e-05 s⁻¹				
C8U A14U G44U	< 1e-05 s⁻¹				
G7U C8G G32C U56G C61A	< 1e-05 s⁻¹		< 1e-05 s⁻¹		
G7U A52G C71U	< 1e-05 s⁻¹				
G9A C11A G35C A42G	< 1e-05 s⁻¹				< 1e-05 s⁻¹
C8G U31A U57A	< 1e-05 s⁻¹		< 1e-05 s⁻¹		< 1e-05 s⁻¹
G9A C10G G32U A48G	< 1e-05 s⁻¹				
C8U A42U G44A U56C	< 1e-05 s⁻¹				
C8U A48G C70U	< 1e-05 s⁻¹	< 1e-05 s⁻¹			< 1e-05 s⁻¹
G7U U45C U56A	< 1e-05 s⁻¹	< 1e-05 s⁻¹	< 1e-05 s⁻¹		
C8G U54C	< 1e-05 s⁻¹	< 1e-05 s⁻¹	< 1e-05 s⁻¹	< 1e-05 s⁻¹	< 1e-05 s⁻¹
C8U C68U C70U	< 1e-05 s⁻¹				< 1e-05 s⁻¹
G9A C34U	< 1e-05 s⁻¹	< 1e-05 s⁻¹			< 1e-05 s⁻¹
G9A C50G	0.000112 ± 1.8e-05 s⁻¹	0.00113 ± 0.00048 s⁻¹		0.000137 ± 3.9e-05 s⁻¹	9.95e-05 ± 1.1e-05 s⁻¹
C8G U54A C67A	< 1e-05 s⁻¹				
C8A A33U G44A A64U	< 1e-05 s⁻¹	< 1e-05 s⁻¹			
G7U A14C U56G	< 1e-05 s⁻¹	< 1e-05 s⁻¹	< 1e-05 s⁻¹	< 1e-05 s⁻¹	< 1e-05 s⁻¹
C8A A12U	< 1e-05 s⁻¹	< 1e-05 s⁻¹	< 1e-05 s⁻¹		< 1e-05 s⁻¹
C8A A12G	< 1e-05 s⁻¹	< 1e-05 s⁻¹	< 1e-05 s⁻¹	< 1e-05 s⁻¹	< 1e-05 s⁻¹
C8G U47G C68A	< 1e-05 s⁻¹		< 1e-05 s⁻¹		
C8A C11U U46C A53U	< 1e-05 s⁻¹				
C8G G13U G21A U30A	< 1e-05 s⁻¹				< 1e-05 s⁻¹
